# Like-named read-outs stand apart in the source and are kept apart here.
# What was measured:
# Experiment in all cases: cell-based or functional assay
# [1] = target: SARS-CoV-2 BA.1 Spike on pseudovirus (SARS-CoV-2) (UniProt P0DTC2)
# [2] = target: SARS-CoV-2 Delta Spike on pseudovirus (SARS-CoV-2) (UniProt P0DTC2)
# [3] = target: SARS-CoV-2 BA.2 Spike on pseudovirus (SARS-CoV-2) (UniProt P0DTC2)
# [4] = target: SARS-CoV-2 BA.4/5 Spike on pseudovirus (SARS-CoV-2) (UniProt P0DTC2)
# [5] = target: SARS-CoV-2 BA.2.12.1 Spike on pseudovirus (SARS-CoV-2) (UniProt P0DTC2)
# [6] = target: SARS-CoV-2 BA.4/5 Spike on pseudovirus (SARS-CoV-2) (UniProt P0DTC2); remark: listed apart in the source
# [7] = target: SARS-CoV-2 BA.1 Spike on pseudovirus (SARS-CoV-2) (UniProt P0DTC2); remark: listed apart in the source
# [8] = target: SARS-CoV-2 Delta Spike on pseudovirus (SARS-CoV-2) (UniProt P0DTC2); remark: listed apart in the source
# [9] = target: SARS-CoV-2 BA.2 Spike on pseudovirus (SARS-CoV-2) (UniProt P0DTC2); remark: listed apart in the source
# [10] = target: SARS-CoV-2 BA.4/5 Spike on pseudovirus (SARS-CoV-2) (UniProt P0DTC2); remark: listed apart in the source
# [11] = target: SARS-CoV-2 BA.2.12.1 Spike on pseudovirus (SARS-CoV-2) (UniProt P0DTC2); remark: listed apart in the source
# [12] = target: SARS-CoV-2 Delta (B.1.617.2) spike protein (SARS-CoV-2)
# [13] = target: SARS-CoV-2 BQ.1.1 spike protein (SARS-CoV-2)
# [14] = target: SARS-CoV-2 XBB.1.5 spike protein (SARS-CoV-2)
# [15] = target: SARS-CoV-2 Delta (B.1.617.2) spike protein (SARS-CoV-2); remark: listed apart in the source
# [16] = target: SARS-CoV-2 BQ.1.1 spike protein (SARS-CoV-2); remark: listed apart in the source
# [17] = target: SARS-CoV-2 XBB.1.5 spike protein (SARS-CoV-2); remark: listed apart in the source
# [18] = target: SARS-CoV-2 Delta (B.1.617.2) spike protein (SARS-CoV-2); remark: listed apart in the source
# [19] = target: SARS-CoV-2 BQ.1.1 spike protein (SARS-CoV-2); remark: listed apart in the source
# [20] = target: SARS-CoV-2 XBB.1.5 spike protein (SARS-CoV-2); remark: listed apart in the source
# [21] = target: SARS-CoV-2 Delta (B.1.617.2) spike protein (SARS-CoV-2); remark: listed apart in the source
# [22] = target: SARS-CoV-2 BQ.1.1 spike protein (SARS-CoV-2); remark: listed apart in the source
# [23] = target: SARS-CoV-2 XBB.1.5 spike protein (SARS-CoV-2); remark: listed apart in the source
# [24] = target: SARS-CoV-2 BA.2 spike protein (SARS-CoV-2)
# [25] = target: SARS-CoV-2 BA.2.3.20 spike protein (SARS-CoV-2)
# [26] = target: SARS-CoV-2 Delta (B.1.617.2) spike protein (SARS-CoV-2); remark: listed apart in the source
# [27] = target: SARS-CoV-2 BN.1 spike protein (SARS-CoV-2)
# [28] = target: SARS-CoV-2 BA.2.75.2 spike protein (SARS-CoV-2)
# [29] = target: SARS-CoV-2 BA.2.12.1 spike protein (SARS-CoV-2)
# [30] = target: SARS-CoV-2 BQ.1 spike protein (SARS-CoV-2)
# [31] = target: SARS-CoV-2 BQ.1.1 spike protein (SARS-CoV-2); remark: listed apart in the source
# [32] = target: SARS-CoV-2 BA.2.75 spike protein (SARS-CoV-2)
# [33] = target: SARS-CoV-2 BA.1 spike protein (SARS-CoV-2)
# [34] = target: SARS-CoV-2 BA.4/5 spike protein (SARS-CoV-2)
# [35] = target: SARS-CoV-2 CH.1.1 spike protein (SARS-CoV-2)
# [36] = target: SARS-CoV-2 BA.4.6 spike protein (SARS-CoV-2)
# [37] = target: SARS-CoV-2 BF.7.14 spike protein (SARS-CoV-2)
# [38] = target: SARS-CoV-2 BA.1.1 spike protein (SARS-CoV-2)
# [39] = target: SARS-CoV-2 XBB.1.5 spike protein (SARS-CoV-2); remark: listed apart in the source
# [40] = target: SARS-CoV-2 XBB.1 spike protein (SARS-CoV-2)
# [41] = target: SARS-CoV-2 BF.7 spike protein (SARS-CoV-2)
substance,measurement,setting,value
Sotrovimab VH/VL (human IgG1 molecule expressing the same variable regions of Sotrovimab) (antibody),"IC50, pseudovirus neutralization",[1],63.3 ng/mL
same,"IC50, pseudovirus neutralization",[2],12.3 ng/mL
same,"IC50, pseudovirus neutralization",[3],392 ng/mL
same,"IC50, pseudovirus neutralization",[4],666 ng/mL
same,"IC50, pseudovirus neutralization",[5],714 ng/mL
same,"IC50, pseudovirus neutralization",[6],424 ng/mL
same,"% neutralization at 4.5 µg/ml, pseudovirus",[7],99.4%
same,"% neutralization at 4.5 µg/ml, pseudovirus",[8],101%
same,"IC50, pseudovirus neutralization",[8],65 ng/mL
same,"% neutralization at 4.5 µg/ml, pseudovirus",[9],73.1%
same,"IC50, pseudovirus neutralization",[9],704 ng/mL
same,"% neutralization at 4.5 µg/ml, pseudovirus",[10],60.5%
same,"IC50, pseudovirus neutralization",[10],> 4500 ng/mL
same,"% neutralization at 4.5 µg/ml, pseudovirus",[11],76.9%
same,"IC50, pseudovirus neutralization",[11],1200 ng/mL
AZD1061 (antibody),"IC50, pseudovirus neutralization",[1],1220 ng/mL
same,"IC50, pseudovirus neutralization",[2],5.9 ng/mL
same,"IC50, pseudovirus neutralization",[3],5.8 ng/mL
same,"IC50, pseudovirus neutralization",[4],41.2 ng/mL
same,"IC50, pseudovirus neutralization",[5],5.1 ng/mL
same,"% neutralization at 4.5 µg/ml, pseudovirus",[7],83.9%
same,"% neutralization at 4.5 µg/ml, pseudovirus",[8],100%
same,"% neutralization at 4.5 µg/ml, pseudovirus",[9],99.7%
same,"% neutralization at 4.5 µg/ml, pseudovirus",[10],96.7%
same,"% neutralization at 4.5 µg/ml, pseudovirus",[11],99.8%
Sotrovimab VH/VL-huIgG1-LS (antibody),"pseudovirus neutralization EC50, Vero E6 (sotrovimab VH/VL-huIgG1-LS + isotype)",[12],7.9 ng/mL
same,"pseudovirus neutralization EC50, Vero E6 (sotrovimab VH/VL-huIgG1-LS + isotype)",[13],1200 ng/mL
same,"pseudovirus neutralization EC50, Vero E6 (sotrovimab VH/VL-huIgG1-LS + isotype)",[14],170 ng/mL
same,"pseudovirus neutralization Emax, Vero E6 (sotrovimab VH/VL-huIgG1-LS + isotype) (% neutralization)",[15],96.9
same,"pseudovirus neutralization Emax, Vero E6 (sotrovimab VH/VL-huIgG1-LS + isotype) (% neutralization)",[16],71.9
same,"pseudovirus neutralization Emax, Vero E6 (sotrovimab VH/VL-huIgG1-LS + isotype) (% neutralization)",[17],93.4
same,"pseudovirus neutralization EC80, Vero E6 (sotrovimab VH/VL-huIgG1-LS + isotype)",[18],42 ng/mL
same,"pseudovirus neutralization EC80, Vero E6 (sotrovimab VH/VL-huIgG1-LS + isotype)",[19],4400 ng/mL
same,"pseudovirus neutralization EC80, Vero E6 (sotrovimab VH/VL-huIgG1-LS + isotype)",[20],680 ng/mL
same,"pseudovirus neutralization EC90, Vero E6 (sotrovimab VH/VL-huIgG1-LS + isotype)",[21],110 ng/mL
same,"pseudovirus neutralization EC90, Vero E6 (sotrovimab VH/VL-huIgG1-LS + isotype)",[22],9600 ng/mL
same,"pseudovirus neutralization EC90, Vero E6 (sotrovimab VH/VL-huIgG1-LS + isotype)",[23],1500 ng/mL
same,"pseudovirus neutralization EC50, Vero E6",[24],851 ng/mL
Sotrovimab VH/VL-hamIgG2a (antibody),"pseudovirus neutralization EC50, Vero E6",[24],361 ng/mL
Bebtelovimab (antibody),"pseudovirus neutralization EC50, Vero E6 (bebtelovimab + isotype)",[12],0.44 ng/mL
same,"IC50, pseudovirus neutralization",[6],0.3 ng/mL
same,"pseudovirus neutralization Emax, Vero E6 (bebtelovimab + isotype) (% neutralization)",[15],99.7
same,"pseudovirus neutralization Emax, Vero E6 (bebtelovimab + isotype) (% neutralization)",[16],55.6
same,"pseudovirus neutralization Emax, Vero E6 (bebtelovimab + isotype) (% neutralization)",[17],0.55
same,"pseudovirus neutralization EC80, Vero E6 (bebtelovimab + isotype)",[18],3.5 ng/mL
same,"pseudovirus neutralization EC90, Vero E6 (bebtelovimab + isotype)",[21],12 ng/mL
same,pseudovirus neutralization EC50,[24],0.2 ng/mL
same,pseudovirus neutralization EC80,[24],1.4 ng/mL
same,pseudovirus neutralization EC90,[24],4.4 ng/mL
same,pseudovirus neutralization Emax (% neutralization),[24],99.9
same,pseudovirus neutralization EC50,[25],12 ng/mL
same,pseudovirus neutralization EC80,[25],360 ng/mL
same,pseudovirus neutralization EC90,[25],2600 ng/mL
same,pseudovirus neutralization Emax (% neutralization),[25],97.9
same,pseudovirus neutralization EC50,[26],3.8 ng/mL
same,"pseudovirus neutralization EC50, TMPRSS2-Vero E6 (bebtelovimab + isotype)",[26],1.6 ng/mL
same,"pseudovirus neutralization EC50, Vero E6 (bebtelovimab + isotype)",[26],0.63 ng/mL
same,pseudovirus neutralization EC80,[26],23 ng/mL
same,"pseudovirus neutralization EC80, TMPRSS2-Vero E6 (bebtelovimab + isotype)",[26],13 ng/mL
same,"pseudovirus neutralization EC80, Vero E6 (bebtelovimab + isotype)",[26],4.2 ng/mL
same,pseudovirus neutralization EC90,[26],66 ng/mL
same,"pseudovirus neutralization EC90, TMPRSS2-Vero E6 (bebtelovimab + isotype)",[26],43 ng/mL
same,"pseudovirus neutralization EC90, Vero E6 (bebtelovimab + isotype)",[26],13 ng/mL
same,pseudovirus neutralization Emax (% neutralization),[26],99.9
same,"pseudovirus neutralization Emax, TMPRSS2-Vero E6 (bebtelovimab + isotype) (% neutralization)",[26],99.7
same,"pseudovirus neutralization Emax, Vero E6 (bebtelovimab + isotype) (% neutralization)",[26],99.7
same,pseudovirus neutralization EC50,[27],0.467 ng/mL
same,pseudovirus neutralization EC80,[27],5.3 ng/mL
same,pseudovirus neutralization EC90,[27],22 ng/mL
same,pseudovirus neutralization Emax (% neutralization),[27],99.4
same,pseudovirus neutralization EC50,[28],0.46 ng/mL
same,pseudovirus neutralization EC80,[28],6.3 ng/mL
same,pseudovirus neutralization EC90,[28],29 ng/mL
same,pseudovirus neutralization Emax (% neutralization),[28],99.5
same,pseudovirus neutralization EC50,[29],0.2 ng/mL
same,pseudovirus neutralization EC80,[29],1.2 ng/mL
same,pseudovirus neutralization EC90,[29],3.6 ng/mL
same,pseudovirus neutralization Emax (% neutralization),[29],99.9
same,pseudovirus neutralization Emax (% neutralization),[30],72.2
same,pseudovirus neutralization Emax (% neutralization),[31],53
same,"pseudovirus neutralization Emax, TMPRSS2-Vero E6 (bebtelovimab + isotype) (% neutralization)",[31],40.5
same,"pseudovirus neutralization Emax, Vero E6 (bebtelovimab + isotype) (% neutralization)",[31],59.1
same,pseudovirus neutralization EC50,[32],0.65 ng/mL
same,pseudovirus neutralization EC80,[32],8.2 ng/mL
same,pseudovirus neutralization EC90,[32],36 ng/mL
same,pseudovirus neutralization Emax (% neutralization),[32],99.5
same,pseudovirus neutralization EC50,[33],0.17 ng/mL
same,pseudovirus neutralization EC80,[33],1.8 ng/mL
same,pseudovirus neutralization EC90,[33],7.2 ng/mL
same,pseudovirus neutralization Emax (% neutralization),[33],99.8
same,pseudovirus neutralization EC50,[34],0.073 ng/mL
same,pseudovirus neutralization EC80,[34],1.2 ng/mL
same,pseudovirus neutralization EC90,[34],6.4 ng/mL
same,pseudovirus neutralization Emax (% neutralization),[34],99.8
same,pseudovirus neutralization Emax (% neutralization),[35],5.32
same,pseudovirus neutralization EC50,[36],0.2 ng/mL
same,pseudovirus neutralization EC80,[36],2.5 ng/mL
same,pseudovirus neutralization EC90,[36],11 ng/mL
same,pseudovirus neutralization Emax (% neutralization),[36],99.6
same,pseudovirus neutralization EC50,[37],0.22 ng/mL
same,pseudovirus neutralization EC80,[37],1.4 ng/mL
same,pseudovirus neutralization EC90,[37],4.1 ng/mL
same,pseudovirus neutralization Emax (% neutralization),[37],99.8
same,pseudovirus neutralization EC50,[38],0.12 ng/mL
same,pseudovirus neutralization EC80,[38],1.3 ng/mL
same,pseudovirus neutralization EC90,[38],5.6 ng/mL
same,pseudovirus neutralization Emax (% neutralization),[38],99.9
same,pseudovirus neutralization Emax (% neutralization),[39],2.01
same,"pseudovirus neutralization Emax, TMPRSS2-Vero E6 (bebtelovimab + isotype) (% neutralization)",[39],2.93
same,"pseudovirus neutralization Emax, Vero E6 (bebtelovimab + isotype) (% neutralization)",[39],4.21
same,pseudovirus neutralization Emax (% neutralization),[40],10.8
same,pseudovirus neutralization EC50,[41],0.11 ng/mL
same,pseudovirus neutralization EC80,[41],1.7 ng/mL
same,pseudovirus neutralization EC90,[41],8.5 ng/mL
same,pseudovirus neutralization Emax (% neutralization),[41],99.8
Sotrovimab VH/VL-huIgG1 (antibody),"pseudovirus neutralization EC50, Vero E6",[24],862 ng/mL
AZD8895 (antibody),"IC50, pseudovirus neutralization",[1],1160 ng/mL
same,"IC50, pseudovirus neutralization",[2],0.5 ng/mL
same,"IC50, pseudovirus neutralization",[3],608 ng/mL
same,"IC50, pseudovirus neutralization",[5],415 ng/mL
same,"% neutralization at 4.5 µg/ml, pseudovirus",[7],96.5%
same,"% neutralization at 4.5 µg/ml, pseudovirus",[8],102%
same,"% neutralization at 4.5 µg/ml, pseudovirus",[9],93.9%
same,"% neutralization at 4.5 µg/ml, pseudovirus",[10],25.8%
same,"% neutralization at 4.5 µg/ml, pseudovirus",[11],94.2%
